# Reference: patent publication US20240285757A1 (University of Pennsylvania, published 2024)
# Key:
# [1] = molecular target: human CD19 on Nalm6 leukemia cells (human) (UniProt P15391); experiment: cell-based or functional assay
# [2] = molecular target: EGFR on U87 (U87-MG) human glioblastoma cells (human, UniProt P00533 25-1210); experiment: cell-based or functional assay
# Sequence of human CD19 on Nalm6 leukemia cells (human) (P15391 20-556): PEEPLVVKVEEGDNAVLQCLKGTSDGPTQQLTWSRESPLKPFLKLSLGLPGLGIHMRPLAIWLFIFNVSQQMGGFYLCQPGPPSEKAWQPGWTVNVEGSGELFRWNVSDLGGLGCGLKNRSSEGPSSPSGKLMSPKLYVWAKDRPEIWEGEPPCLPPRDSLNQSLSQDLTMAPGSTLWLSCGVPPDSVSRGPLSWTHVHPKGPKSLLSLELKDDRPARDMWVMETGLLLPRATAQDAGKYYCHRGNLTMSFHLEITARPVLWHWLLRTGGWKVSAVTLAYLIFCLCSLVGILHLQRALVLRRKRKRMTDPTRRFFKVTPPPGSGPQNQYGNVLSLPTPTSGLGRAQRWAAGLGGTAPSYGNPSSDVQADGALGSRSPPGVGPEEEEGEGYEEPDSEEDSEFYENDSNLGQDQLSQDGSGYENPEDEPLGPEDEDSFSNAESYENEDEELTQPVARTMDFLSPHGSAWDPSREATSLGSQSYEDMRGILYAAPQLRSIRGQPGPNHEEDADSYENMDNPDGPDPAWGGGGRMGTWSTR
Molecule,CpNA functional activity in supernatant after 24 h co-culture at 10:1 E:T (cleavage-activated fluorescent NA substrate) [1] [fold],CpNA functional activity in supernatant after 24 h co-culture with Nalm6 cells at 10:1 E:T [1] [mU/ml],CpNA levels/activity in supernatant after 24 h co-culture at 10:1 E:T (cleavage-activated fluorescent NA substrate) [2] [fold]
"CD19-specific, 4-1BBZ CAR containing the FMC63 scFv",4.9,19.5,–
"806 CAR (EGFR-specific, 4-1BBZ CAR containing an 806 scFv linked via a CD8alpha hinge and CD8a TM to (other) VH: DVQLQESGPSLVKPSQSLSLTCTVTGYSITSDFAWNWIRQFPGNKLEWMGYISYSGNTRYNPSLKSRISITRDTSKNQFFLQLNSVTIEDTATYYCVTAGRGFPYWGQGTLVTVSA VL: DILMTQSPSSMSVSLGDTVSITCHSSQDINSNIGWLQQRPGKSFKGLIYHGTNLDDEVPSRFSGSGSGADYSLTISSLESEDFADYYCVQYAQFPWTFGGGTKLEIKR",–,–,2.3
